Laboratory results: the RNAGym collection of RNA variant scans (doi:10.1073/pnas.2313332121)

B1: TPR t1 (parent)
chain: GACCAAUCUGCCCUCAGAGCUCGAGAACAUCUUCGGAUGCAGAGGAGGCAGGCUUCGGUGGCGCGAUAGCGCCAACGUCCUCAACCUCCAAUGCAUCCCACCACAUGAUGAUGCCUGAAGAGCCUUGGUUUUUUG

Variants of: B1
Assay: polymerase ribozyme fitness, log enrichment relative to wild type (log ratio); higher = more active; in vitro selection for triplet polymerase activity
Outline: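 Frozen incubation at −7 °C formed the core of a single, triplicate in vitro selection round applied to PCR-built, transcribed mutant libraries of each subunit of a heterodimeric triplet polymerase ribozyme. Extended constructs were gel-excised, captured with streptavidin beads and amplified by RT-PCR, and input and output libraries were Illumina-sequenced with a filter of ≥10 input reads and ≥1 read per output. Fitness is the logarithm of genotype enrichment relative to wild-type enrichment, with inverse-variance-weighted replicate averaging, and the logarithm is base 2.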

Point of comparison: C22G A29U G69C C89A G110U, “polymerase ribozyme fitness (log ratio)” value -5.19. Against it:
- C20U G48U — higher, -2.05
- C20U G36U G135U — higher, -2.95
- C20A C28G C70G A83U C99U G113U — lower, -6.88
- C20U G42A U106A G113C — higher, -2.24
- C20A U106A C124A — higher, -1.85
- C20U U54A C73A C115G — higher, -3.1
- C22U G52A A84C C104U — lower, -5.74
- C22U A27U G45C U54G C56G G63C A121U — within 0.2 log units, -5.28
- U21C C22A C101G G110A — lower, -6.05
- C20U A91G — higher, -2.03
- C20U G39A G110U G128A — lower, -5.92
- U21A G39U G48A A74U U78G — higher, -2.09
- C20A G36U G77U U116C — within 0.2 log units, -5.13
- U21A C76U — higher, -0.123
- C20G G57C — higher, -4.41
- U21A C56G C73A C99G G120A U131C — lower, -7.97
- C20A U21A C73G — higher, -4.94
- C22G C101A — higher, -3.82
- C22A G71U — lower, -5.61
- U21A A27C U32G G71A U112C — lower, -5.9
- C20U G45A — higher, -2.57
- C20U G45U — higher, -2.33
- C20G A90C A95U — higher, -4.06
- C22G A41U G93U — within 0.2 log units, -5.01
- C22A U81C — lower, -5.67
- U21C C22A C88U — higher, -4.68
- C22A U112A C114G — higher, -1.84
- C22A G48A G57U C70A A83G A91U C115A — lower, -7.04
- C20U C72A — higher, -1.55
- C20U C72G — higher, -1.56
- C20G A43G C89A — higher, -3.78
- U21C A74U G120A — higher, -0.17
- C22A G120U — higher, -4.24
- C20G C40A A66G G71A G93U U112C — lower, -6.06
- C20U U81C — higher, -1.54
- C22G C56A C73U — higher, -4.49
- C20U C73U G110U G120U A121G — higher, -3
- C20U G69U — higher, -0.346
- C20U C28A G93U G110C — higher, -4.8
- U21A C49A C73A C115A U130G — higher, 0.139
- C22U U131A — higher, -3.95
- U21G C56U — higher, -1.08
- C22A C34G — lower, -6.64
- C20U C49U C56G U78G U81A C86U U133G — higher, -3.51
- C22U C56G — higher, -3.79
- C20A G57U C97A C115A U116C — lower, -6.48
- C22A G42U G71U G113C — lower, -5.64
- C22G G71U — higher, -3.63
- U21A G135U — higher, -0.915
- C20A G23A G36A G48A G113A — lower, -7.55
- C20G G71C — within 0.2 log units, -5.08
- C20A G63A C94A U112A — higher, -2.57
- C20U A27G C72A C82U A84G U116C — lower, -7.5
- U21C C56A C70U G110U — lower, -6.01
- C20G U38G C76G — lower, -5.6
- C22G C49G — higher, -3.79
- C20A C101U — higher, -3.43
- C20U A26U U32C G69U — higher, -3.17
- C22U A50C C124A — higher, -3.54
- U21A A50C — higher, -0.532
- U21G A41U G60C C80U U92C C97A A121U — lower, -8.22
- U21G U87A U133G G135U — higher, -1.41
- C22G G45A — higher, -3.31
- C22G C82A C94G A111U — higher, -4.76
- C20A C115U — higher, -3.52
- C20U U32G — lower, -6.33
- C22G G58C — higher, -2.94
- C22G C56U A105U U112C — higher, -2.05
- U21A A41C A90C G93A — higher, -4.16
- C22A C53A C94U G110U — lower, -6.9
- C22U U106G C115U — lower, -6.69
- C20U G45U G52A C73G C94U C104U — higher, -4.54
- U21C G61C C85A A95U — higher, -4.53
- U21A U106A U132A — higher, -0.182
- C22G G57C C89A A95G A111U A121U — higher, -4.42
- C20U U38G C72U C102U — within 0.2 log units, -5.01
- U21G G47A C114A C123G U125A — higher, -1.52
- U21C A90C — higher, -1.17
- C20U G52U G61U U87C — higher, -1.96
- U21C A84C C124G U131C — higher, 1.43
- C20U C73U — higher, -1.6
- U21A G60U A90G — higher, 0.0218
- C22G C72G C124A — higher, -2.22
